Values of other authors, collected in paper PMC7300301.

Molecular target: FcRn (Homo sapiens) (UniProt P55899)

- Kd: 0.75 µM
Substance: palivizumab
